Data published in the supplement of paper PMC10567573.

B1: RSPH3 (parent)
chain: MTVKPAKAASLARNLAKRRRTYLG

Variants of: B1
Assay: protein stability index of a GFP-peptide fusion (GPS, HEK-293T) (PSI 1-6); higher = more stable
Conditions: c terminus: a fixed tail appended
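Note: lentivirally expressed fusions sorted by FACS into six bins by GFP to DsRed ratio, PSI derived from sequencing read proportions per bin multiplied by bin number.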

Protein stability index, by site and new letter:
A16: E 2.15, F 2.48, G 3.15, H 3.91, I 2.28, K 3.44, L 2.35, M 2.57, N 2.72, P 3.42, Q 2.19, R 3.35, S 3.36, T 2.69, V 3.28, W 1.82, Y 2.53
K17: A 3.39, C 1.99, D 3.25, E 2.99, F 2.1, G 3.5, H 2.99, I 2.46, L 2.61, M 2.8, N 2.57, P 3.02, Q 2.49, R 3.04, S 2.91, T 3, V 2.64, W 1.92, Y 2.38
R18: A 3.3, C 2.62, D 3, E 3.33, F 2.71, G 3.22, H 2.91, I 2.63, K 2.55, L 2.55, M 2.38, N 2.31, P 2.38, Q 2.52, S 2.96, T 2.73, V 2.91, W 2.55, Y 2.27
R19: A 1.79, C 1.6, D 2.88, E 3.49, F 1.23, G 2.85, H 1.51, I 1.77, K 2.86, L 2.05, M 3.63, N 2.37, P 1.86, Q 2.62, S 2.51, T 2.52, V 1.45, W 1.64, Y 2.42
R20: A 2.41, C 1.91, D 3.08, E 2.81, F 1.96, H 2.59, I 2.17, K 3.12, L 1.81, M 2.72, N 2.94, P 2.81, Q 3.83, S 2.61, T 2.61, V 1.63, W 2.2, Y 1.51
T21: A 3.09, C 2.73, D 3.59, E 3.47, F 1.93, G 2.83, H 2.79, I 2.54, K 3.9, L 2.98, M 2.7, N 2.98, P 2.92, Q 3.21, R 3.18, S 3.26, V 2.83, W 1.77, Y 2.13
Y22: A 3.81, C 3.63, D 3.31, E 3.12, F 3.25, G 4.24, H 3.84, I 3.37, K 3.85, M 2.9, N 3.46, P 3.26, Q 3.93, R 3.03, S 3.23, T 3.88, V 3.99, W 3.06
L23: A 3.98, C 3.28, D 3.71, E 4.43, F 3.2, G 4.13, H 3.9, I 4.26, K 3.5, M 3.53, N 3.5, P 3.42, Q 4.34, R 3.61, S 4.5, T 4.09, V 2.96, W 3.34, Y 3
G24: A 3.33, C 2.64, D 2.04, E 3.54, F 1.97, H 2.7, I 2.35, K 2.68, L 2.3, M 2.38, N 3.18, P 3.63, Q 2.94, R 3.46, S 3.15, T 3.42, V 2.17, W 1.63, Y 2.42
